The target of test [1] is T1, recombinant human Ang2-FLD (human, UniProt O15123 275-496, limits assumed).
T1 construct: domain: FLD; not used
T1 sequence (looked up): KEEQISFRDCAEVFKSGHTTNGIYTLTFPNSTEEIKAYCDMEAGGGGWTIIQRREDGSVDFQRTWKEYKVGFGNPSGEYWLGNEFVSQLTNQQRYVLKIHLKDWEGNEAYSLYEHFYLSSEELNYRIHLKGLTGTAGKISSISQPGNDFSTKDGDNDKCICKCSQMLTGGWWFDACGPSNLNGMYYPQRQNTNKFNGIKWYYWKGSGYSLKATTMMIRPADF
Briefly: ProteOn off-rate assay, periplasmic extracts over coated human Ang2-FLD. The method, then: In a first cycle, amino acid substitutions are introduced randomly in both framework (FW) and complementary determining regions (CDR) using the error-prone PCR method. […] After a polish step, PCR products are inserted via unique restriction sites into a vector designed to facilitate phage display of the VHH library. […] Periplasmic extract of affinity matured clones is diluted 1:10 and injected across the “analyte channels” A1-A6.

Test [2] has as its target T2, FLAG-tagged mouse Ang2 (mouse, UniProt O35608 19-496).
T2 construct: N-terminally FLAG-tagged, conditioned medium of HEK293T cells; also called mAng2; FLAG-mAng2
T2 sequence: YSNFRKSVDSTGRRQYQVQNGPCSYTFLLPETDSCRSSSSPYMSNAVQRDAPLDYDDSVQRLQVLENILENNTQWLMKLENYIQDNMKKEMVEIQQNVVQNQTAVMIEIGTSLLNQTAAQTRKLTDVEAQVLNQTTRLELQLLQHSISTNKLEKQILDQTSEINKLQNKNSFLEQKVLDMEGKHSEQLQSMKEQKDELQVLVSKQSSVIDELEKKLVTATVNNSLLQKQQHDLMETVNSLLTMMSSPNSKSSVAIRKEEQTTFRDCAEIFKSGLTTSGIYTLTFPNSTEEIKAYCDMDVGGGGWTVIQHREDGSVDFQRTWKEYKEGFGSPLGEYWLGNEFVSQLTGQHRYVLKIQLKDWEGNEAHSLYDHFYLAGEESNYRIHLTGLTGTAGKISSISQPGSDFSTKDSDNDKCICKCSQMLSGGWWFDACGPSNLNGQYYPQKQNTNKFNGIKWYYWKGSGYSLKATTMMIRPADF
The experiment in a line: competition ELISA: FLAG-mAng2 binding to coated mTie2-Fc. The method, then:
(§1) In brief, 2 μg/mL of recombinant mouse Tie2-Fc or cyno Tie2-Fc is coated overnight at 4° C. in a 96-well MaxiSorp plate (Nunc, Wiesbaden, Germany). Coated wells are blocked with a 1% casein solution.

Test [3] concerns the target T3, FLAG-tagged cynomolgus Ang2 (cynomolgus, UniProt O15123 19-496 (human entry), limits assumed).
T3 construct: N-terminally FLAG-tagged, conditioned medium of HEK293T cells; also called cAng2; FLAG-cAng2
T3 chain: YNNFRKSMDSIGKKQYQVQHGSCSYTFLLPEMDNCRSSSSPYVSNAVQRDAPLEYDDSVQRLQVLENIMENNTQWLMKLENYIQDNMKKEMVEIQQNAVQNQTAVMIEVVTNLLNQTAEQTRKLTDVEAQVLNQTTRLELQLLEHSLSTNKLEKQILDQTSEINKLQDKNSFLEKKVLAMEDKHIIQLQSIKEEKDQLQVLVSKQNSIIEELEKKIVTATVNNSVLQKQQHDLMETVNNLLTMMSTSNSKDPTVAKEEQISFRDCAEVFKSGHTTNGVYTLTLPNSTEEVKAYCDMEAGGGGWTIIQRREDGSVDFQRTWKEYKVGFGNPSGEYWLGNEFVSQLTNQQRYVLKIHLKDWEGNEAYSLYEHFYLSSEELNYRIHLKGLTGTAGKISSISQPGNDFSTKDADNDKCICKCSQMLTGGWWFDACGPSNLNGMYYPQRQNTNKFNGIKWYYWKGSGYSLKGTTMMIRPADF
Briefly: competition ELISA: FLAG-cAng2 binding to coated cTie2-Fc. As to the method:
as §1

Test [4] has as its target T2, FLAG-tagged mouse Ang2. Briefly: competition ELISA: FLAG-mAng2 binding to coated mTie2-Fc. As to the method:
as §1
This is another data set of the same source.

Test [5] addresses T3, FLAG-tagged cynomolgus Ang2. The experiment in a line: competition ELISA: FLAG-cAng2 binding to coated cTie2-Fc. The method, then: as §1

Where two headings read alike, the source gives them in different places.

B1: variant(s) of VHH 00027 carrying A24V (VHH, name in Kabat numbering)
VHH: EVQLVESGGGLVQAGGSLRLSCAVSGFTLDDYAIGWFRQAPGKEREGVSSIRDNDGSTYYADSVKGRFTISSDNDKNTVYLQMNSLKPEDTAVYYCAAVPAGRLRFGEQWYPLYEYDAWGQGTLVTVSS
notes: not shown: C-terminal c-myc tag and His6 tag
For B1, the “fold improvement (off-rate against VHH 00027)” value in test [1] is 2 fold.

B2: VHH 28D10 (VHH, not shown: small tags and cut ends)
VHH: EVQLVESGGGLVQAGGSLRLSCAASGFTLDDYAIGWFRQAPGKEREGVSCIRDSDGSTYYADSVKGRFTISSDNDKNTVYLQMNSLKPEDTAVYYCAAVPAGRLRFGEQWYPLYEYDAWGQGTQVTVSS
notes: Parental llama VHH; also called 028D10
On to B2, for which the IC50 with FLAG-tagged mouse Ang2 [2] is 5.7 nM; in test [3], 2.1 nM; with FLAG-tagged mouse Ang2 [4], 5.7 nM; in test [5], 2.1 nM.
